Source: the supplement of paper PMC9732359
± gives the uncertainty stated by the source.

Assay: protein stability index of a GFP-peptide fusion (yeast GPS) (PSI 1-4); higher = more stable; sorted into four equal gates, so the index is relative within each strain
Method in brief: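 Sequencing reads from sorted gates were used to score each peptide. The library consisted of tiled 17-residue yeast protein peptides fused downstream of GFP on a Cherry-expressing plasmid, pooled and carried in yeast. Mid-log cultures in leucine-free medium were split into four equal gates by GFP/Cherry ratio, and each gate's plasmids were PCR-amplified and Illumina-sequenced. The protein stability index adds up, over all gates, the read frequency multiplied by the gate number.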

| Sequence | protein stability index (doa10∆) | protein stability index (pdr5∆) | protein stability index (san1∆) | protein stability index (ubr1∆) |
| --- | --- | --- | --- | --- |
| EKASGFEDSMQFKKLTH [PRP8] | 2.81 ± 0.085 | 3.12 ± 0.083 | 2.99 ± 0.087 | 3.01 ± 0.084 |
| GLTLSTTNLDIDLLTFQ [RPP1] | 2.94 ± 0.067 | 3.04 ± 0.06 | 3.16 ± 0.056 | 2.86 ± 0.05 |
| LCTLNDSKGSLYSVKFA [YGL100W/SEH1] | 2.94 ± 0.13 | 2.84 ± 0.093 | 2.62 ± 0.058 | 2.49 ± 0.071 |
| DDYSNEDNEMLEDLFSY [YJR042W/NUP85] | 2.01 ± 0.15 | 1.94 ± 0.15 | 1.76 ± 0.18 | 1.66 ± 0.073 |
| SFLGEAKSMAFLKEVLS [YML103C/NUP188] | – | – | 2.48 ± 0.18 | 2.54 ± 0.21 |
| ASNEVIAKSRYWYFLQK [RPL20A] | 2.19 ± 0.054 | 2.66 ± 0.066 | 2.58 ± 0.063 | 2.72 ± 0.058 |
| PDYYMIIKYPVAFDNIN [SNF2] | 2.78 ± 0.14 | 2.08 ± 0.12 | 1.97 ± 0.12 | 2.44 ± 0.15 |
| LSLDSDVKFPSNTTTQI [SMC3] | 2.9 ± 0.25 | 3.37 ± 0.14 | 2.81 ± 0.15 | 3.32 ± 0.18 |
| MSHRKYEAPRHGHLGFL [RPL3] | – | 3.15 ± 0.19 | 2.9 ± 0.099 | 2.94 ± 0.23 |
| KVLCLAVAVGNVEMEED [RPL1A] | 1.58 ± 0.064 | 1.67 ± 0.053 | 1.33 ± 0.09 | 1.68 ± 0.044 |
| ILKTLERSICALGEFAD [YML031W/NDC1] | 2.58 ± 0.053 | 3.04 ± 0.075 | 3.05 ± 0.065 | 2.78 ± 0.05 |
| TSKSFSKLLYDDVTCDK [SIN4] | 3.01 ± 0.077 | 2.9 ± 0.051 | 2.7 ± 0.054 | 3.16 ± 0.039 |
| QNRPYNHPELQGITRNV [RPC17] | 2.06 ± 0.046 | 2.38 ± 0.078 | 2.03 ± 0.087 | 2.17 ± 0.049 |
| RKAYFTAPSSQRRVLLS [RPL26A] | 2.44 ± 0.055 | 2.14 ± 0.056 | 2.54 ± 0.054 | 1.74 ± 0.047 |
| VPTSIQTKRWPTMYTRL [SIN4] | 2.18 ± 0.048 | 2.57 ± 0.05 | 2.5 ± 0.047 | 2.62 ± 0.039 |
| NVESVGSIPVDQVVVRG [RPB3] | 2.63 ± 0.057 | 2.45 ± 0.072 | 2.3 ± 0.07 | 2.23 ± 0.059 |
| AYFLIIVPVISTIENVL [COB] | 1.52 ± 0.057 | 1.75 ± 0.045 | 1.92 ± 0.059 | 2.12 ± 0.07 |
| EDIVGALRRRVGPSEQN [REC8] | 2.28 ± 0.074 | 1.58 ± 0.052 | 2.71 ± 0.12 | 2.43 ± 0.075 |
| KSICFENCLNNDPEILK [SWI1] | 2.2 ± 0.087 | 2.69 ± 0.056 | 2.83 ± 0.068 | 2.7 ± 0.074 |
| TTRVGGGGAARRQAVDV [RPS5] | 1.61 ± 0.26 | 1.63 ± 0.12 | 1.73 ± 0.28 | 1.82 ± 0.17 |
| QMLIQGVWDVDNPLRQI [BRR2] | 3.54 ± 0.13 | 3.26 ± 0.19 | 3.47 ± 0.091 | 2.78 ± 0.14 |
| ETLVLSYFSPINSSNEA [YCG1] | 2.67 ± 0.096 | 1.55 ± 0.087 | 1.25 ± 0.19 | 2.13 ± 0.055 |
| YQTKKFYDYIKERSIVV [REC8] | 2.49 ± 0.058 | 2.81 ± 0.054 | 2.14 ± 0.058 | 2.72 ± 0.047 |
| IALSRRFLLNGRVKALE [YDL116W/NUP84] | 1.25 ± 0.062 | 1.3 ± 0.058 | 1.19 ± 0.13 | 1.24 ± 0.035 |
| NESEKDQWLEEYKKHFP [UBP6] | 3.31 ± 0.16 | 3.6 ± 0.19 | – | 3.32 ± 0.11 |
| KCLVEKSICFENCLNND [SWI1] | 1.81 ± 0.097 | 2.67 ± 0.057 | 2.69 ± 0.064 | 2.61 ± 0.078 |
| FDTVSNKLFTEPIKLEP [YMR129W/POM152] | 2.58 ± 0.046 | 2.7 ± 0.065 | 2.64 ± 0.057 | 2.91 ± 0.036 |

| Sequence | protein stability index (doa10∆) | protein stability index (pdr5∆) | protein stability index (san1∆) | protein stability index (ubr1∆) |
| --- | --- | --- | --- | --- |
| KFPATNVTTILDEIFSG [ECM29] | 2.54 ± 0.078 | 2.93 ± 0.066 | 2.28 ± 0.06 | 2.7 ± 0.063 |
| ATAEKLPNIYPSTRCKL [RPT2] | 2.14 ± 0.096 | 1.66 ± 0.091 | 2.04 ± 0.1 | 2 ± 0.1 |
| AICRNHIMEPCIECQPK [HRT1] | 2.26 ± 0.081 | 3.23 ± 0.13 | 2.17 ± 0.094 | 2.67 ± 0.074 |
| DELSSKELVECHLYSQR [NNF1] | 2.05 ± 0.056 | 2.33 ± 0.052 | 2.13 ± 0.094 | 2 ± 0.04 |
| MDKPLNFRILKSFTNDK [SRB5] | 3.15 ± 0.06 | 3.11 ± 0.059 | 3.14 ± 0.042 | 3.16 ± 0.036 |
| SLTDVAFFTYDAGVTFN [ECM29] | 2.66 ± 0.065 | 2.34 ± 0.057 | 2.82 ± 0.063 | 2.6 ± 0.068 |
| KPSRTSRQVQKRPRSRT [RPS7A] | 3.08 ± 0.092 | 2.44 ± 0.085 | 2.68 ± 0.061 | 1.95 ± 0.14 |
| TEELQTQYATSQKTKTI [SMC2] | 3.5 ± 0.24 | 3.19 ± 0.14 | 3.11 ± 0.23 | 3.18 ± 0.093 |
| GVSLLALWKEKKEKPRS [RPS23A] | 3.12 ± 0.089 | 2.29 ± 0.11 | 2.21 ± 0.1 | 2.94 ± 0.075 |
| ERAAQKLRLDQLVIQQG [ISW2] | 2.49 ± 0.11 | 2.52 ± 0.094 | 2.74 ± 0.082 | 2.42 ± 0.069 |
| VFERFKTKILEVAIRDV [IRR1] | 1.77 ± 0.081 | 1.75 ± 0.09 | 1.43 ± 0.14 | 1.67 ± 0.072 |
| KREIQEALSEKPTREPT [RPC53] | 2.96 ± 0.11 | 2.86 ± 0.098 | 3.05 ± 0.11 | 3.15 ± 0.1 |
| KKGVRVTLDITTLTIMR [RPT4] | 2.48 ± 0.093 | 2.08 ± 0.11 | 2.23 ± 0.079 | 2.56 ± 0.082 |
| HAQSKREGRHSGYGKRK [RPL19A] | 2.8 ± 0.086 | 2.9 ± 0.08 | 2.85 ± 0.05 | 2.96 ± 0.042 |
| PKELGGLGMISASHILI [PRP8] | 2.36 ± 0.072 | 2.67 ± 0.053 | 2.14 ± 0.084 | 2.41 ± 0.047 |
| IGIVEIAHENEQKWLIY [SRB8] | 1.69 ± 0.067 | 1.83 ± 0.051 | 1.58 ± 0.086 | 1.54 ± 0.034 |
| RKILESSNIVNENDSQA [YIL149C/MLP2] | – | 2.88 ± 0.14 | 2.89 ± 0.085 | – |
| TVNEPQMSDKHATVVPP [SRB7] | 2.73 ± 0.12 | 2.83 ± 0.11 | 2.89 ± 0.093 | 3.07 ± 0.092 |
| TEKLSPLASEESLTNSN [YGL100W/SEH1] | 3.36 ± 0.13 | 3.25 ± 0.14 | 3.12 ± 0.099 | 3.32 ± 0.075 |
| GHIAKLMATEYQDIEGG [RPB2] | 3.45 ± 0.29 | – | – | 3.18 ± 0.13 |
| GFSFGSQLGGNKTVNEA [YJL041W/NSP1] | 3.18 ± 0.072 | 3.23 ± 0.074 | 3.32 ± 0.048 | 3.22 ± 0.048 |
| IQLLDENVGTRLLPINV [MED11] | 3.09 ± 0.16 | 2.86 ± 0.1 | 3.14 ± 0.066 | 3.16 ± 0.063 |
| KNLSLLAEEVVDNIVNK [SRP68] | 3.15 ± 0.092 | 2.9 ± 0.13 | 3.16 ± 0.066 | 3.01 ± 0.089 |
| QLKNVQLDSYLVNGFSQ [MED2] | 2.49 ± 0.062 | 2.68 ± 0.088 | 2.24 ± 0.11 | 2.49 ± 0.042 |
| LQLNEAEEFVAGVSHGT [SMX3] | 3.36 ± 0.25 | 2.96 ± 0.23 | 3.01 ± 0.28 | 3.41 ± 0.11 |
| AAKTRSYNWGAKAKRRH [RPL37A] | 3.7 ± 0.15 | 3.39 ± 0.082 | 3 ± 0.099 | 3.49 ± 0.085 |
